From patent US8399206B2, “Methods for diagnosis, prognosis and methods of treatment” (Nodality, Inc., priority 2008, dated 2013) come the findings set out here.

In series [1] the test system is FLT3-WT and FLT3-ITD AML leukemic blasts. The experiment in a line: SCNP signaling and apoptosis in FLT3-WT versus FLT3-ITD AML samples (Example 9). Type of series: cell-based, human. An excerpt:
This example identifies intracellular signaling pathways associated with FLT3 ITD in two independent cohorts of diagnostic AML samples that serve as an improvement over current clinical tools in the identification of clinically meaningful altered FLT 3 and has implications for cohort selection in the development of FLT3 inhibitors. The two cohorts of data were further analyzed to investigate the differences in signaling between FLT-WT and FLT-ITD samples. The first cohort of data (“study 1”) comprised the 34 samples from University Health Network outlined in Table 16 and Table 19. The second cohort of data (“study 2”) comprised an 83 sample subset of MD Anderson Cancer Center data outlined in Table 16 (and Table 19). The 83 sample subset was selected based on known FLT3 mutation status. Both cohorts of data were used to investigate differences in FLT3 signaling between leukemic blasts and control data.
In order to further characterize wild-type FLT receptor signaling in AML, we compared FLT3L-induced signaling in the myeloblast population of control BMMC samples with FLT3L-induced signaling in the leukemic blast population of FLT3-WT AML samples.
Univariate analysis, unadjusted for multiple testing, was performed sequentially and independently on the two study cohorts in order to identify signaling nodes that distinguished with FLT3-ITD from FLT3-WT AML patient samples. […] Results from both studies include the AUC, Wilcoxon and t-test p-value for each node, and the number/mean value of the samples in the FLT3-ITD and FLT3-WT AML groups with common stratifying nodes summarized in FIG. 23. Although the majority of the discussion herein is directed to nodes that had similar reponses within the two cohorts of data, some differences were observed between the two cohorts of data. These differences may have been due to the different clinical characteristics of the two cohorts of data, specifically biases in the data from UHN.

Series [2] concerns AML myeloblasts (BMMC). Nature of the series: SCNP of paired diagnosis and relapse AML BMMC and independent diagnostic set (Example 5). In kind it is cell-based, human. The conditions noted are these: paired diagnosis samples of Patients 1 and 2. An excerpt:
All AML bone marrow mononuclear cells (BMMC) were derived from the bone marrow (BM) of AML patients treated at MD Anderson Cancer Center (MDACC) between September 1999 and September 2006. Clinical data were de-identified in compliance with Health Insurance Portability and Accountability Act regulations. Patient/sample inclusion criteria required a diagnosis of French-American-British (FAB) classification of M0 through M7 AML (excluding M3) AML, collection prior to therapy initiation and at least 50% viability upon sample thaw. For the identification of chemoresistant signaling profiles, two longitudinally paired BMMC samples at diagnosis (collection prior to the initiation of induction chemotherapy) and first relapse, were examined. An independent test set comprised of 47 BMMC samples collected at diagnosis from AML patients with a disease response of CR after high dose cytarabine based chemotherapy was used to assess the ability of the identified signaling profiles to predict disease relapse. Healthy, unstimulated BMMC (n=2) were purchased from a commercial source (All Cells) to serve as a control. All samples underwent fractionation over Ficoll-Hypaque prior to cryopreservation with 90% fetal bovine serum and 10% dimethyl sulfoxide and storage in liquid nitrogen.
The SCNP assay measured response to growth factors and cytokines involved in hematopoietic progenitor or myeloid biology (SCF, FLT3L, G-CSF, IL-27), drug transporter (ABCG2, MRP-1) and chemokine receptors (CXCR4) associated with adverse disease prognosis in AML, and the c-Kit growth factor receptor for SCF. The SCF and FLT3L-mediated PI3K/Akt and MAPK pathway is important for maintaining the hematopoietic stem cell pool; G-CSF-mediated Jak/STAT pathway activation is important for neutrophilic differentiation of hematopoietic progenitor cells; interleukin (IL)-27 mediated Jak/STAT pathway activation is important in regulating proliferation and differentiation of hematopoietic stem cells; CXCR4 expression is associated with disease relapse and decreased survival; and drug transporter expression levels (i.e. ABCG2 and MRP-1) are known to be associated with adverse prognosis in AML. All together, approximately 20 signaling nodes were evaluated in each sample.
SCNP assays were performed as described previously. Cryopreserved samples were thawed at 37° C. and washed once in warm PBS containing 10% FBS (HyClone, Waltham, Mass., USA) and 2 mM EDTA. […] The cells were re-suspended in RPMI containing 1% FBS, aliquoted to 100,000 cells/condition and rested for 1-2 hours at 37° C. […]

B1: IL-27: interleukin-27 (protein, UniProt Q8NEV9 29-243; Q14213 21-229, looked up)
Interleukin-27 subunit alpha: FPRPPGRPQLSLQELRREFTVSLHLARKLLSEVRGQAHRFAESHLPGVNLYLLPLGEQLPDVSLTFQAWRRLSDPERLCFISTTLQPFHALLGGLGTQGRWTNMERMQLWAMRLDLRDLQRHLRFQVLAAGFNLPEEEEEEEEEEEEERKGLLPGALGSALQGPAQVSWPQLLSTYRLLHSLELVLSRAVRELLLLSKAGHSVWPLGFPTLSPQP
Interleukin-27 subunit beta: RKGPPAALTLPRVQCRASRYPIAVDCSWTLPPAPNSTSPVSFIATYRLGMAARGHSWPCLQQTPTSTSCTITDVQLFSMAPYVLNVTAVHPWGSSSSFVPFITEHIIKPDPPEGVRLSPLAERQLQVQWEPPGSWPFPEIFSLKYWIRYKRQGAARFHRVGPIEATSFILRAVRPRARYYVQVAAQDLTDYGELSDWSLPATATMSLGK
For B1, the “responsiveness to IL-27 stimulation” value in series [1] (FLT3-ITD samples) is “minimal responsiveness”. The “IL-27-induced p-Stat responses” value in series [1] (FLT3-WT samples) is “wide range of p-Stat responses”. Further, in series [2], the “responsive subpopulation in diagnosis samples” value was “no IL-27 responsive subpopulation was identified”.

B2: FLT-3L: fms-like tyrosine kinase receptor-3 ligand (protein, UniProt P49771 27-235, looked up)
Fms-related tyrosine kinase 3 …: TQDCSFQHSPISSDFAVKIRELSDYLLQDYPVTVASNLQDEELCGGLWRLVLAQRWMERLKTVAGSKMQGLLERVNTEIHFVTKCAFQPPPSCLRFVQTNISRLLQETSEQLVALKPWITRQNFSRCLELQCQPDSSTLPPPWSPRPLEATAPTAPQPPLLLLLLLPVGLLLLAAAWCLHWQRTRRRTPRPGEQVPPVPSPQDLLLVEH
Turning to B2, the “FLT3L-induced PI3K and MAPK pathway activation” value in series [1] (FLT3-ITD samples compared to FLT3-WT samples) was “lower levels of induced and total PI3K and MAPK pathway activation”. In addition, in series [1] (FLT3-WT AML samples), the “FLT3L-induced signaling at 15 minutes” value is “sustained p-Erk, p-CREB and p-Akt activation”; the “range of FLT3L-induced S6 signaling” value is “wide range of S6 signaling”. In addition, in series [1] (FLT3-WT AML samples, early time points (4 minutes, 10 minutes)), the “FLT3L-induced p-Akt and p-S6” value is “increased levels of p-Akt and p-S6”. The “responsive cells in diagnostic AML bone marrow samples” value in series [2] is listed as ~1%.
